Reference: the DeepSol protein solubility set

Assay: soluble on expression in E. coli; label from the status in PepcDB or PDB records

Question: Which “soluble on expression in E. coli” value does the source give for “MSLIKVLIVDDHALVRMGIRRLLEDMSDVDVVADAESGEQALAYVKTHSPDVVLLDMKMPGIDGWEVTRRLKKTNPNIKVIAVTAICSDPLPTRVLQLGAMGYLTKESGAEEMAAAIRKVAKGEKYLSAEIAQKMAINSLQESQDSPFDLLSEREMQVMLMITSGMNVQDIADRLFLSSKTINGYRYRMFEKLGIKNDVELTYLAMKHRIIEHPNDLSQDDEGHHHHHH” here?
Answer: soluble

Question: With “TTPIVHLKGDANTLKCLRYRFKKHCTLYTAVSSTWHWTGHNVKHKSAIVTLTYDSEWQRDQFLSQVKIPKTITVSTGFMSIGGGTGGGSGGGS” as the sequence, how does the “soluble on expression in E. coli” value read?
Answer: soluble

Question: For “SEGSASEVLKEWIVTGKKKNKKKKSKPKPASEASGSAPDSSKSAPIQEEQPASSEKGSINGYHVNGAINDAESVDSLSEGLETLSIDARELEDPEFAAAETLDRTGSVLENGVSDFEPKSLTAHSISNVQQSRNAAKSLSRTTPGAQVSNLGMENVPLSSTNKKLGSNIEKSVKDLQRCTVSLARYRVVVKEEMDASIKKMKQAFAELQSCLMDREVALLAEMDKVKAEAMEILLSRQKKAELLKKMTDVAVRMSEEQLVELRADIKHFVSERKYDEDLGRVARFTCDVETLKQSIDSFGQVSHPKNSYSTRSRCSLVAPVSLSGPSDGSAASSSPDASVPSLPGANKRNCAPREASAAMTNSSDRPCQAHREVFPGNRRGGQGYRAQSQKTADPSNPGRHDSVGRYRNSSWYSSGPRYQGVPPQAPGNAGERSRPYSAGTNGTGAISEPSPPKPSFKKGLPQRKPRASQAEAANS”, which “soluble on expression in E. coli” value is on record?
Answer: not soluble

Question: Which “soluble on expression in E. coli” value does the source give for “MPKITVYTGKEVLQIDAKEGSSLLDILAENSLYVEAPCGGKGICGKCKVAVKKDGKPYLENITKEEKRLLTSDELQKGIRLCCNLKVFESLEVFLPHSKIGAKILSGLYTLEHHHHHH” here?
Answer: not soluble

Question: For “MNRIAFDAKRITSNATGLGNYSRFVVEALAAFHSEHRYYLCSPGKGNPALYSALQQREGIEWLLPEGRRMGGTFWRNFGVVPRLQKEGIDLFHGLSHELPLGIYGKGIATVVTIHDLIFIRYPHYYKPVDRLLYRLKYGHAARCADRVIAISEQTKRDVMEFFHVPADRIDVVYQGCSPAFGQATEEDESRARERYALPERYLLYVGSIETRKNLRLAVEALAHCRDRHIRLVAVGKRTPYCAEVQQCAERSGVADRLVMLHDVPFAFLPGIYRGAEVFVYPSRFEGFGIPIVEALASGVPVVAATGSCLEEAGGPSSLYTDPDDAEMMASMLDSILSDSSLREKMIADGRTYIERFSPEAVARSLMHVYDKVL”, which “soluble on expression in E. coli” value is on record?
Answer: not soluble

Question: Which “soluble on expression in E. coli” value does the source give for “MSLKLNWDKAIDKAIKRYGLRVEPQLISYFSKAGVSYPPKEIALLAFKSERKVELWAKNPSQEWTHIHDYPLTGFSGRLGPKLRENDKQIPEGIYKLVNFNPFSSMHLSMMINYPNSFDRQKGYMDGRKELGNNIFIHGKNLSVGCLAVGDLAIDQLFILARRVGLKNIQVIIAPNDLRYQKPSTSTFAQPRWLPELYKQITESLKPFKKTKFTAEGHHHHHH” here?
Answer: soluble

Question: For “RSVAAPLVKLRKATQNIKEGNLDFVLDVEGTDEFSELCRDFEEMRRRLKESAEEKIAMDKENKELISNISHDLKTPITAVKGYVEGIMDGVADTPEKMDRYVRTIYNKTNEMDHLINELTFYSKIDTNRIPYTFSKLNVEDYFSDCAEEVGLELETRGIQLCYANYVDKDVLVIA”, which “soluble on expression in E. coli” value is on record?
Answer: not soluble

Question: With “MTENKSFKESHPLDDFISDKELSNTTIQKEKLTIEQQKQVDTISKQINPLDNEGLLAFGSDLQKQMSQFSHQMLDEVQSKDVGPIGDTLSDLMSKLKSVNPNELNTDKPSMLKRIFSRAKSSINEIFSRMQSVSAQVDRITIQLQKHQTHLTRDIELLDTLYDKNKQYFDDLSLHIIAAQQKKLQLENEKLPQLQQQAQQSTNQMDIQQVSDMQQFIDRLDKRIYDLQLSRQIALQTAPQIRMIQNVNQALAEKIQSSILTSIPLWKNQMAIALTLMRQRNAVAAQRAVTDTTNDLLTANAEMLKQNAIETATENERGIVDLDTLKRTQRNIIETIEETLIIQQHGREERQLAEKELQQLEQDLKSHLVNIKGPNKQS” as the sequence, how does the “soluble on expression in E. coli” value read?
Answer: not soluble

Question: With “MGSDKIHHHHHHMEDLQRLYPIGIQTFSKIREGNFLYVDKTEYVYRMTHSASSYMFLSRPRRFGKSLLTSTLHSYFSGREELFRGLAMEKLEKEWIQYPVLHFDMSMAKHVDKDKLMNLLDFMLTEHERTLGIDAAGTDPNLRLTNLIKRAYEQTGRKVVVLIDEYDAPLLDVVHERENLGVLRDVMRNFYSPLKACDPYLRYVFLTGITKFSQLSIFSELNNIKNISMDEPYAAICGITENEILTQMKEDVDRMAVKLNITAEEVLAKLKENYDGYHFTYPSPDIYNPFSLLNAFADGKFNSYWFGSGTPTYLIKMLDKFGVEPSEIGNKLAAVEEFDAPTETMSSITPLLYQSGYVTIKDYDKELELYTLDIPNKEVRVGLMRSLLPYYVTNDTREATNMVAFISRDIR” as the sequence, how does the “soluble on expression in E. coli” value read?
Answer: not soluble

Question: With “MGSDKIHHHHHHLMCCASRSVPRWPDNIFTEFLSPKRALGPEPCRPRMTPFWRAGQLCPSVQDRRVFSCEPPCAVFPRWRTMRRAYLLKQEVLPMKISVIGASRGIGRKVVEEALERGHSVTGMARSATSLGIDHAEFTAIDGDATNATDVTQAIDGADAVILTLGVPKDARVLKSTTLFSDATRTLITAMEEAGIKRLLTVTGFGAGDSKEKLSTPERLTQKAFLGRAYADKDLQEKLIRDSDLDWTIARPGILSDNRKSNAYKVLVEKETWRNGLINRSDVADFLVTAAEDESHIHKTPALQR” as the sequence, how does the “soluble on expression in E. coli” value read?
Answer: not soluble

Question: Which “soluble on expression in E. coli” value does the source give for “MNTPLKRFFKIGYVIENFLHPYHNKKLLPLSRGVNIKGIFVLLNTLWRVFQDGSLQDLWSFT” here?
Answer: not soluble

Question: Which “soluble on expression in E. coli” value does the source give for “MGSDKIHHHHHHMVIKNIDAATVAKKFLVRGYNIDPKAAELICKSGLFSDELVDKICRIANGGFIIEKSVVEEFLRNLSNLKPATLTPRPEERKVEEVKASCIALKVIKDITGKSSCQGNVEDFLMYFNSRLEKLSRIIRSRVNTTPIAHAGKVRGNVSVVGMVNEVYERGDKCYIRLEDTTGTITCVATGKNAEVARELLGDEVIGVTGLLKGSSLYANRIVFPDVPINGNGEKKRDFYIVFLSDTHFGSKEFLEKEWEMFVRWLKGEVGGKKSQNLAEKVKYIVIAGDIVDGIGVYPGQEDDLAISDIYGQYEFAASHLDEIPKEIKIIVSPGNHDAVRQAEPQPAFEGEIRSLFPKNVEHVGNPAYVDIEGVKVLIYHGRSIDDIISKIPRLSYDEPQKVMEELLKRRHLSPIYGGRTPLAPEREDYLVIEDVPDILHCGHIHTYGTGFYRGVFMVNSSTWQAQTEFQKKVNLNPMPGNVAVYRPGGEVIRLRFYGE” here?
Answer: not soluble

Question: For “MSLGECPEYGKVKWIGNIYCHKYDEATTTLLSISTGTQSLGQDLKQRQAQLSIAKLTALAAEVQDLEKLNEIQTELDLIDGQILLSQELQESTLNPLFKDFTTYRTLFKYLSDAVKRRESLSVPHMIELFTLLNQDTSYGFALSILAIDHTLPTEVKKYCEYQIWRRCLLSDENAVRQTLRVFFKQQFYHQSIELPIIDNLANEKLITDSYLDGMYHGLTDLNKLASDVKREVALFANSNLDVTMLQSIIGEINEETGNQCVINYATNTIETSPTSEGHHHHHH”, which “soluble on expression in E. coli” value is on record?
Answer: soluble

Question: Which “soluble on expression in E. coli” value does the source give for “MLTEKTKKELIRLSKVNNYIIKVETNQNFKHQSKCGDQILFQIIETNNGKFNLKHHASGCIVLLASANALNKLCNNKAKSEILNLVQKVINSNFANLDEIDVSLKIFNVFTNTNRKDCFLLPYKSLKDSLESYKPLRRTIRLEHHHHHH” here?
Answer: not soluble

Question: With “MSLTNDVDAIQPIGLRRIDHIAQTMKFDEMQDWLLYYISTFEMDKSSIVNVNDPSGIILSQAIESPEGEVRLNLNASEDLNTFAGLFVEDKFGAGVQHIAFASDDIFESANLLRINGFKSLAIPSGYYEETKNKFNLNDTFIAQLKKQNILYDQDGNSEYFQIYSKNLFDGFFFEIVQRKNGYSGYGARNASVRLSSQTILQQAEGHHHHHH” as the sequence, how does the “soluble on expression in E. coli” value read?
Answer: not soluble

Question: Which “soluble on expression in E. coli” value does the source give for “SLRAKNQLFLLSPHYLRQVKESSGSRLIQQRLLHQQQPLHPEWAALAKKQLKGKNPEDLIWHTPEGISIKPLYSKRDTMDLPEELPGVKPFTRGPYPTMYTFRPWTIRQYAGFSTVEESNKFYKDNIKAGQQGLSVAFDLATHRGYDSDNPRVRGDVGMAGVAIDTVEDTKILFDGIPLEKMSVSMTMNGAVIPVLANFIVTGEEQGVPKEKLTGTIQNDILKEFMVRNTYIFPPEPSMKIIADIFEYTAKHMPKFNSISISGYHMQEAGADAILELAYTLADGLEYSRTGLQAGLTIDEFAPRLSFFWGIGMNFYMEIAKMRAGRRLWAHLIEKMFQPKNSKSLLLRAHCQTSGWSLTEQDPYNNIVRTAIEAMAAVFGGTQSLHTNSFDEALGLPTVKSARIARNTQIIIQEESGIPKVADPWGGSYMMECLTNDVYDAALKLINEIEEMGGMAKAVAEGIPKLRIEECAARRQARIDSGSEVIVGVNKYQLEKEDTVEVLAIDNTSVRNRQIEKLKKIKSSRDQALAERCLAALTECAASGDGNILALAVDASRARCTVGEITDALKKVFGEHKANDRMVSGAYRQEFGESKEITSAIKRVHKFMEREGRRPRLLVAKMGQDGHDRGAKVIATGFADLGFDVDIGPLFQTPREVAQQAVDADVHAVGVSTLAAGHKTLVPELIKELNSLGRPDILVMCGGVIPPQDYEFLFEVGVSNVFGPGTRIPKAAVQVLDDIEKCLEKKQQSV” here?
Answer: not soluble

Question: For “MGSDKIHHHHHHMKTTALRLYGKRDLRLETFDLPEMQEDEILATVVTDSLCLSSWKEANLGENHKKVPDDVTTNPIIIGHEFCGDILAVGKKWQHKFQPGQRYVIQANLQLPDRPDCPGYSFPWVDGEATHVVIPNEVMEQYCLLAYDGETYFEGSLVEPLSCVIGAFNANYHLQEGSYNHTMGIRPQGHTLILGGTGPMGLLAIDYALHGPVNPSLLVITDTDNDKLSYARKHYPSEPQTLIHYLNATDAAFDTLMALSGGHGFDDIFVFVPNEGLVTLASSLLATDGCLNFFAGPQDKHFSAPINFYDVHYAFTHYVGTSGGNTDDMRAAVKLIEEKKVQAAKVVTHILGLNAAGETTLELPAVGGGKKLVYTGKYLPLTSLTQIQDQALAAILARHQGIWSGEVEQYLLAHAEAISHD”, which “soluble on expression in E. coli” value is on record?
Answer: not soluble

Question: Which “soluble on expression in E. coli” value does the source give for “LLHGDFELAVPGGPVAAYYAAPAGREQLPIVLVVQEIFGLHEHIKDVCRRLAHDGYLAVSVNLYQRQGDASRYDNIPGLVAELVSKVPDEQVHADLDASLAWAAAHGGDGARVGVTGFCWGGRTTWMYAARNPAVKAGVAWYGRLSSGHGPLIKQVPLDVAGSLHAPVLGLYGGKDESIPLDDVRAMEARLQQGGAPAQASRIVVYPQAGHAFLADYRPSYRAADAQDGWRRMLDWFALYL” here?
Answer: not soluble

Question: For “MGHHHHHHSHMIALKMFYTEETYEQFFDYGLDYVIDASDTICYKIHLMKECLKRDIPLISSMGAANKTDPTRFQIADISKTHTDPIAKVVRTKLRKEGIKKGVQVIFSDESPIVIREDVRKEVGNDEAKIRKAKMPPSSNAFVPSVAGLIMGGHVVMDLLKDIEIKRVKDK”, which “soluble on expression in E. coli” value is on record?
Answer: soluble

Question: For “AHHHHHHGSIIELDEFTRVEGNGKAEIVIENGEVKDARVKIVEGPRFFEILTLGRDYWDVPDLEARICAICYIAHSVASVRAIEKALGIDVPESVEKLRELALWGEIIESHALHLYLLALPDVFGYPDAISMIPRHGELVKEGLTIKAFGNAIRELIGGREIHGINIKPGGFGRYPSEEELEKIAEHSKSLIKFARRIVGIFASQEAGGAVGEVLMATSDYLWGDELIINGERVQYYEVDEVPVGYSFAKHSYYKGNPVFVGALPRLLLKGESIEGEAARMLEEYRDKLESKYVIYNNLAQAIELLYALERVPQLVEEILSEGIERGNGEISQESGEGVGYVEAPRGVLVHHYRIENGKVVWSNTITPTAFNQRLMELSLLEEAKRLYGSESEENMKKRLEVIVRAFDPCISCSVHFVKL”, which “soluble on expression in E. coli” value is on record?
Answer: soluble

Question: With “MAQLMKRGFSTSAALAKAQLVKTPIQVHGVEGRYAAALYSAGHKQNKLDQISTDLNNVRSVYKDNKKFQEFVLDPTLKANKKKTAIEAISTKLGLTKETGNFLGLLAENGRLNKLESVVSSFESIMRAHRGELFVQVTSAEELSSSNQKALSDALSKIGKSGQKLTVTYAVKPSILGGLVVTIGDKYVDLSIASRVKKYKDALATAI” as the sequence, how does the “soluble on expression in E. coli” value read?
Answer: not soluble
